Starred links: 1 amine or outer side, 2 acyl side, 3 side chain; linkers in the order of their positions; H or OH if unused. Positions of bridges follow the written chain, without caps; N, C: chain ends. Non-standard residues stand in square brackets, D forms with d. Primed or numbered codes have the meaning given here. B5(16) = 2-amino-2-(pent-4-en-1-yl)hept-6-enoic acid = 2,2-bis(4-pentenyl)glycine (stitching residue), C=CCCCC(CCCC=C)(N[*:1])C(=O)[*:2]; B5(4) = 2,2-bis(4-pentenyl)glycine = 2-amino-2-(pent-4-en-1-yl)hept-6-enoic acid (stitching residue), C=CCCCC(CCCC=C)(N[*:1])C(=O)[*:2]; B5(5) = 2,2-bis(4-pentenyl)glycine, 2-amino-2-(pent-4-en-1-yl)hept-6-enoic acid (stitching residue), C=CCCCC(CCCC=C)(N[*:1])C(=O)[*:2]; SeN = (S)-5-(((allyloxy)carbonyl)(methyl)amino)-2-amino-2-methylpentanoic acid, C=CCOC(=O)N(C)CCC[C@](C)(N[*:1])C(=O)[*:2]; B5(19) = 2-amino-2-(pent-4-en-1-yl)hept-6-enoic acid (bis(4-pentenyl)glycine), C=CCCCC(CCCC=C)(N[*:1])C(=O)[*:2]; B5 = 2-amino-2-(pent-4-en-1-yl)hept-6-enoic acid, C=CCCCC(CCCC=C)(N[*:1])C(=O)[*:2]; Phe(3,4,5-F3) = N[C@@H](Cc1cc(F)c(F)c(F)c1)C(=O)O; Phe(3,4-F2) = N[C@@H](Cc1ccc(F)c(F)c1)C(=O)O; 2Nal = N[C@@H](Cc1ccc2ccccc2c1)C(=O)O; αAllylPro = C=CC[C@@]1(C(=O)O)CCCN1; S8 = C=CCCCCCC[C@](C)(N)C(=O)O
B1: I-352 (peptide)
peptide: Ac-[αAllylPro]DA[B5(16)]DAAAFV[S8]FWQ-NH2
modifications: staple 1-4, 4-11
notes: Stapled peptide composition; also called Ac-PL3-Asp-Ala-B5-Asp-Ala-Ala-Ala-Phe-Val-S8-Phe-Trp-Gln-NH2
B2: I-178 (peptide)
peptide: XDAXDEAAFQXFWH
modifications: not fully specified; As printed: Ac-PL3-Asp-Ala-B5-Asp-Glu-Ala-Ala-Phe-Gln-S8-Phe-Trp-His-NH2. N-terminal Ac; C-terminal amide; PL3 (1), B5 (4), S8 (11) stapled by olefin metathesis (PL3-B5 and B5-S8)
notes: Stapled peptide composition
B3: I-179 (peptide)
peptide: XDAXDEAAFQXFWH
modifications: not fully specified; As printed: Ac-PL3-Asp-Ala-B5-Asp-Glu-Ala-Ala-Phe-Gln-S8-Phe-Trp-His-NH2. N-terminal Ac; C-terminal amide; PL3 (1), B5 (4), S8 (11) stapled by olefin metathesis (PL3-B5 and B5-S8)
notes: Stapled peptide composition
B4: I-180 (peptide)
peptide: XDIXDEAAFQXFWQ
modifications: not fully specified; As printed: Ac-PL3-Asp-Ile-B5-Asp-Glu-Ala-Ala-Phe-Gln-S8-Phe-Trp-Gln-NH2. N-terminal Ac; C-terminal amide; PL3 (1), B5 (4), S8 (11) stapled by olefin metathesis (PL3-B5 and B5-S8)
notes: Stapled peptide composition; this is the earlier-eluting isomer composition
B5: I-181 (peptide)
peptide: XDIXDEAAFQXFWQ
modifications: not fully specified; As printed: Ac-PL3-Asp-Ile-B5-Asp-Glu-Ala-Ala-Phe-Gln-S8-Phe-Trp-Gln-NH2. N-terminal Ac; C-terminal amide; PL3 (1), B5 (4), S8 (11) stapled by olefin metathesis (PL3-B5 and B5-S8)
notes: Stapled peptide composition; this is the later-eluting isomer composition
B6: I-199 (peptide)
peptide: Ac-[αAllylPro]NA[B5]DEAAFV[S8]FWQ-NH2
modifications: staple 1-4, 4-11
notes: as for B4
B7: I-200 (peptide)
peptide: Ac-[αAllylPro]NA[B5(4)]DEAAFV[S8]FWQ-NH2
modifications: staple 1-4, 4-11
notes: as for B5
B8: I-186 (peptide)
peptide: XDAXDEAAFAXFWA
modifications: not fully specified; As printed: Ac-PL3-Asp-Ala-B5-Asp-Glu-Ala-Ala-Phe-Ala-S8-Phe-Trp-Ala-NH2. N-terminal Ac; C-terminal amide; PL3 (1), B5 (4), S8 (11) stapled by olefin metathesis (PL3-B5 and B5-S8)
notes: as for B4
B9: I-187 (peptide)
peptide: XDAXDEAAFAXFWA
modifications: not fully specified; As printed: Ac-PL3-Asp-Ala-B5-Asp-Glu-Ala-Ala-Phe-Ala-S8-Phe-Trp-Ala-NH2. N-terminal Ac; C-terminal amide; PL3 (1), B5 (4), S8 (11) stapled by olefin metathesis (PL3-B5 and B5-S8)
notes: as for B5
B10: I-188 (peptide)
peptide: Ac-[αAllylPro]DI[B5(5)]DDAAFQ[SeN]FWH-NH2
modifications: staple 1-4, 4-11; not fully specified; printed as Ac-PL3-Asp-Ile-B5-Asp-Asp-Ala-Ala-Phe-Gln-SeN-Phe-Trp-His-NH2
notes: Stapled peptide composition
B11: I-211 (peptide)
peptide: Ac-[αAllylPro]DA[B5(4)]DEAA[Phe(3,4,5-F3)]V[S8]FWQ-NH2
modifications: staple 1-4, 4-11; not fully specified; printed as Ac-PL3-Asp-Ala-B5-Asp-Glu-Ala-Ala-345FF-Val-S8-Phe-Trp-Gln-NH2
notes: Stapled peptide composition

These binders were tested against T1, full-length beta-Catenin (Uniprot ID P35222) (Homo sapiens (Human), UniProt P35222 1-781) (assay: fluorescence polarization competition vs 5FAM-TCF4(10-53) on full-length beta-catenin).
T1 construct: also called bCat; B-Catenin
T1 sequence: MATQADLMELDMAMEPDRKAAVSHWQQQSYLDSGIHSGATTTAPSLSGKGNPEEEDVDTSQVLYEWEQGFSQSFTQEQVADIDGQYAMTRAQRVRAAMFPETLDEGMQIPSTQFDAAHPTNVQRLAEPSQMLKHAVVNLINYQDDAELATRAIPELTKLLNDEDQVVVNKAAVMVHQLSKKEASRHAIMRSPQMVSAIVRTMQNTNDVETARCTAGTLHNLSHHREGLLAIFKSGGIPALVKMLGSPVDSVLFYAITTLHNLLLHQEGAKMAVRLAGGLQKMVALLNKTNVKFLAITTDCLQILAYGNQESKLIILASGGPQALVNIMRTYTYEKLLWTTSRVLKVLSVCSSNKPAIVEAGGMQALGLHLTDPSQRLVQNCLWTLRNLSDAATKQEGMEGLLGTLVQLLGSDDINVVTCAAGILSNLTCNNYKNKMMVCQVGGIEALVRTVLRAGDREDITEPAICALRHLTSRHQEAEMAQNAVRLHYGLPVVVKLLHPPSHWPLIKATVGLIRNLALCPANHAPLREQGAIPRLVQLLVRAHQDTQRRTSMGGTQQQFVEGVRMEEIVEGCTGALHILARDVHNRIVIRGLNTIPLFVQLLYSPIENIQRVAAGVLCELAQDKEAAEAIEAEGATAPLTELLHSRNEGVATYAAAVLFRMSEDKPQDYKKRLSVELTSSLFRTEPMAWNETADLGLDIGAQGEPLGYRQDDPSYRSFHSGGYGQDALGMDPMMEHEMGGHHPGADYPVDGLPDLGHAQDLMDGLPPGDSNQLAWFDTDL
Procedure: (§1) The plate was incubated protected from light for 60 minutes at 20° C. prior to read. Reads were performed on a CLARIOstar plate reader (BMG Labtech) in duplicate, and data were fitted to a 1:1 binding model with hill slope using an in-house script. All provided concentrations are final concentrations.

For B1, which IC50 is on record?
The IC50 was 5 µM.

The binders below were run against T2, full-length beta-Catenin (Uniprot ID P35222) (Homo sapiens (Human), UniProt P35222 1-781) (assay: fluorescence polarization competition; full-length beta-catenin + 5FAM-TCF4(10-53) probe as competitor; peptide titrated).
T2 construct: Used full-length in the FP and AlphaScreen assays; also called B-Catenin; bCat
T2 sequence: T1 sequence
Procedure: as §1

Ac-[αAllylPro]DI[B5(5)]DEAAFV[S8]FWH-NH2 (staple 1-4, 4-11, Stapled peptide composition) [I-176] was tested. Which EC50 did it give?
Its EC50 is 1.99 µM.

With Ac-[αAllylPro]DI[B5(5)]DEAAFV[S8]FWH-NH2 (staple 1-4, 4-11, Stapled peptide composition) [I-177] as the binder, how does the EC50 read?
The EC50 was 1.99 µM.

B2 was tested. Which EC50 did it give?
The EC50 was 1.63 µM.

With B3 as the binder, how does the EC50 read?
Its EC50 is 1.63 µM.

With B4 as the binder, how does the EC50 read?
The EC50 was 0.561 µM.

For Ac-[αAllylPro]DI[B5(19)]DEAAFQ[S8]FWA-NH2 (staple 1-4, 4-11, Stapled peptide composition) [I-194], which EC50 is on record?
Its EC50 is 1.01 µM.

B5 was tested. Which EC50 did it give?
Its EC50 is 0.31 µM.

Ac-[αAllylPro]DA[B5(19)]D[dE]AAFV[S8]FWQ-NH2 (staple 1-4, 4-11, Stapled peptide composition) [I-182] was tested. Which EC50 did it give?
Its EC50 is 2.8 µM.

For Ac-[αAllylPro]DA[B5]NEAAFV[S8]FWQ-NH2 (staple 1-4, 4-11, Stapled peptide composition) [I-198], which EC50 is on record?
The EC50 was 5 µM.

Which EC50 does the source give for B6 here?
The EC50 was 5 µM.

Which EC50 does the source give for B7 here?
Its EC50 is 5 µM.

For Ac-[αAllylPro]DA[B5(4)]DEAA[Phe(3,4-F2)]V[S8]F[2Nal]Q-NH2 (staple 1-4, 4-11, Stapled peptide composition) [I-184], which EC50 is on record?
Its EC50 is 3.11 µM.

Which EC50 does the source give for B8 here?
Its EC50 is 5 µM.

With B9 as the binder, how does the EC50 read?
The EC50 was 3.32 µM.

With B10 as the binder, how does the EC50 read?
Its EC50 is 1.6 µM.

Which EC50 does the source give for B11 here?
Its EC50 is 5 µM.

How did the EC50 turn out when Ac-[αAllylPro]DA[B5(4)]DEAA[Phe(3,4,5-F3)]V[S8]FWQ-NH2 (staple 1-4, 4-11, Stapled peptide composition) [I-212] was run?
The EC50 was 5 µM.

The binders below were run against T2, full-length beta-Catenin (Uniprot ID …) (assay: AlphaScreen (nickel chelate) competition; full-length beta-catenin + biotin-TCF4(10-53) probe as competitor; peptide titrated).
Procedure: as §1, with “Equal volume of the titrated peptide was added to the” for “The”, “and” for “was”, “incubated for 15 minutes at 20° C. Then 4 uL of donor and 4 uL acceptor beads at 10 ug/mL were added to the plate, for a 16 uL reaction pool and” for “incubated”

For Ac-[αAllylPro]DI[B5(5)]DEAAFV[S8]FWH-NH2 (staple 1-4, 4-11, Stapled peptide composition) [I-176], which EC50 is on record?
Its EC50 is 0.549 µM.

Which EC50 does the source give for Ac-[αAllylPro]DI[B5(5)]DEAAFV[S8]FWH-NH2 (staple 1-4, 4-11, Stapled peptide composition) [I-177] here?
The EC50 was 0.549 µM.

B2 was tested. Which EC50 did it give?
The EC50 was 0.152 µM.

B3 was tested. Which EC50 did it give?
Its EC50 is 0.152 µM.

B4 was tested. Which EC50 did it give?
The EC50 was 0.088 µM.

Ac-[αAllylPro]DI[B5(19)]DEAAFQ[S8]FWA-NH2 (staple 1-4, 4-11, Stapled peptide composition) [I-194] was tested. Which EC50 did it give?
The EC50 was 0.105 µM.

How did the EC50 turn out when B5 was run?
Its EC50 is 0.051 µM.

For Ac-[αAllylPro]DA[B5(19)]D[dE]AAFV[S8]FWQ-NH2 (staple 1-4, 4-11, Stapled peptide composition) [I-182], which EC50 is on record?
Its EC50 is 0.75 µM.

How did the EC50 turn out when Ac-[αAllylPro]DA[B5]NEAAFV[S8]FWQ-NH2 (staple 1-4, 4-11, Stapled peptide composition) [I-198] was run?
The EC50 was 0.538 µM.

For Ac-[αAllylPro]DA[B5(4)]DEAA[Phe(3,4-F2)]V[S8]F[2Nal]Q-NH2 (staple 1-4, 4-11, Stapled peptide composition) [I-184], which EC50 is on record?
The EC50 was 0.628 µM.

Which EC50 does the source give for B8 here?
Its EC50 is 0.518 µM.

B9 was tested. Which EC50 did it give?
Its EC50 is 0.204 µM.

With B10 as the binder, how does the EC50 read?
The EC50 was 0.156 µM.

Reference: US20240116985A1 (published 2024)
